From paper doi:10.1101/2021.04.07.438830 (bioRxiv, 2021)

Target: T1, GST-KPC2 (UniProt Q9BSL1 1-405)
T1 sequence: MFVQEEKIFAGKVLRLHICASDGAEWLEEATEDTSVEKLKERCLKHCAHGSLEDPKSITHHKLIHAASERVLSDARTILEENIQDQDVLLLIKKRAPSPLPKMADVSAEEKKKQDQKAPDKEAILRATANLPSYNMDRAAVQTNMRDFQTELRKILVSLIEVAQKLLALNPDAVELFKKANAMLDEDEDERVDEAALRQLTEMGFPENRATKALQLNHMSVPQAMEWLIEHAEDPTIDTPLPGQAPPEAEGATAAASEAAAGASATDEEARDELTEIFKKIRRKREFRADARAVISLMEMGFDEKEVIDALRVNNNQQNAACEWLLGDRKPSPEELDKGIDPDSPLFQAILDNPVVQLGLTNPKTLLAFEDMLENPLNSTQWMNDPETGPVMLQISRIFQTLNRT
Test: pull-down

binding result: binds
B1: GST-p65 (1-307) (domain or fragment)
chain: MDELFPLIFPAEPAQASGPYVEIIEQPKQRGMRFRYKCEGRSAGSIPGERSTDTTKTHPTIKINGYTGPGTVRISLVTKDPPHRPHPHELVGKDCRDGFYEAELCPDRCIHSFQNLGIQCVKKRDLEQAISQRIQTNNNPFQVPIEEQRGDYDLNAVRLCFQVTVRDPSGRPLRLPPVLSHPIFDNRAPNTAELKICRVNRNSGSCLGGDEIFLLCDKVQKEDIEVYFTGPGWEARGSFSQADVHRQVAIVFRTPPYADPSLQAPVRVSMQLRRPSDRELSEPMEFQYLPDTDDRHRIEEKRKRTYE
